The Human Domainome abundance scans (Beltran et al. 2025)
± gives the uncertainty stated by the source.

B1: Unconventional myosin-Ie, residues 1051 to 1108; numbered along this chain, Q12965 (parent)
chain: PQVPQCKALYAYDAQDTDELSFNANDIIDIIKEDPSGWWTGRLRGKQGLFPNNYVTKI

Variants of: B1
Assay: abundance fitness (aPCA) (normalised: wild type 0, dead -1); higher = more abundant; growth selection in yeast, the domain comes from the species named
Details: Homo sapiens
With PQVPQCKALYAYDAQDMDELSFNANDIIDIIKEDPSGWWTGRLRGKQGLFPNNYVTKI the abundance fitness was -0.043 ± 0.043.
Work on PQVPQCKALYAYDAQDPDELSFNANDIIDIIKEDPSGWWTGRLRGKQGLFPNNYVTKI yielded an abundance fitness of -0.273 ± 0.092.
PQVPQCKALYAYDAQDYDELSFNANDIIDIIKEDPSGWWTGRLRGKQGLFPNNYVTKI showed an abundance fitness of -0.238 ± 0.088.
In the case of PQVPQCKALYAYDAQDDDELSFNANDIIDIIKEDPSGWWTGRLRGKQGLFPNNYVTKI, the abundance fitness is reported as -0.007 ± 0.078.
For PQVPQCKALYAYDAQDCDELSFNANDIIDIIKEDPSGWWTGRLRGKQGLFPNNYVTKI, the abundance fitness was -0.128 ± 0.063.
Variant PQVPQCKALYAYDAQDSDELSFNANDIIDIIKEDPSGWWTGRLRGKQGLFPNNYVTKI has an abundance fitness of -0.077 ± 0.05.
For PQVPQCKALYAYDAQDRDELSFNANDIIDIIKEDPSGWWTGRLRGKQGLFPNNYVTKI, the abundance fitness was -0.111 ± 0.049.
PQVPQCKALYAYDAQDLDELSFNANDIIDIIKEDPSGWWTGRLRGKQGLFPNNYVTKI gave an abundance fitness of -0.239 ± 0.06.
Work on PQVPQCKALYAYDAQDHDELSFNANDIIDIIKEDPSGWWTGRLRGKQGLFPNNYVTKI yielded an abundance fitness of -0.137 ± 0.19.
PQVPQCKALYAYDAQDQDELSFNANDIIDIIKEDPSGWWTGRLRGKQGLFPNNYVTKI gave an abundance fitness of -0.078 ± 0.055.
PQVPQCKALYAYDAQDFDELSFNANDIIDIIKEDPSGWWTGRLRGKQGLFPNNYVTKI showed an abundance fitness of -0.287 ± 0.097.
PQVPQCKALYAYDAQDWDELSFNANDIIDIIKEDPSGWWTGRLRGKQGLFPNNYVTKI showed an abundance fitness of -0.091 ± 0.035.
In the case of PQVPQCKALYAYDAQDNDELSFNANDIIDIIKEDPSGWWTGRLRGKQGLFPNNYVTKI, the abundance fitness is reported as -0.423 ± 0.14.
PQVPQCKALYAYDAQDEDELSFNANDIIDIIKEDPSGWWTGRLRGKQGLFPNNYVTKI showed an abundance fitness of -0.272 ± 0.09.
With PQVPQCKALYAYDAQDGDELSFNANDIIDIIKEDPSGWWTGRLRGKQGLFPNNYVTKI the abundance fitness was -0.057 ± 0.044.
PQVPQCKALYAYDAQDADELSFNANDIIDIIKEDPSGWWTGRLRGKQGLFPNNYVTKI showed an abundance fitness of 0.026 ± 0.048.
Work on PQVPQCKALYAYDAQDKDELSFNANDIIDIIKEDPSGWWTGRLRGKQGLFPNNYVTKI yielded an abundance fitness of -0.18 ± 0.082.
In the case of PQVPQCKALYAYDAQLTDELSFNANDIIDIIKEDPSGWWTGRLRGKQGLFPNNYVTKI, the abundance fitness is reported as -0.271 ± 0.046.
PQVPQCKALYAYDAQYTDELSFNANDIIDIIKEDPSGWWTGRLRGKQGLFPNNYVTKI gave an abundance fitness of -0.093 ± 0.088.
For PQVPQCKALYAYDAQHTDELSFNANDIIDIIKEDPSGWWTGRLRGKQGLFPNNYVTKI, the abundance fitness was -0.206 ± 0.12.
PQVPQCKALYAYDAQATDELSFNANDIIDIIKEDPSGWWTGRLRGKQGLFPNNYVTKI showed an abundance fitness of -0.055 ± 0.058.
With PQVPQCKALYAYDAQWTDELSFNANDIIDIIKEDPSGWWTGRLRGKQGLFPNNYVTKI the abundance fitness was -0.231 ± 0.049.
For PQVPQCKALYAYDAQFTDELSFNANDIIDIIKEDPSGWWTGRLRGKQGLFPNNYVTKI, the abundance fitness was -0.19 ± 0.057.
For PQVPQCKALYAYDAQTTDELSFNANDIIDIIKEDPSGWWTGRLRGKQGLFPNNYVTKI, the abundance fitness was -0.024 ± 0.058.
Work on PQVPQCKALYAYDAQKTDELSFNANDIIDIIKEDPSGWWTGRLRGKQGLFPNNYVTKI yielded an abundance fitness of -0.069 ± 0.07.
Work on PQVPQCKALYAYDAQPTDELSFNANDIIDIIKEDPSGWWTGRLRGKQGLFPNNYVTKI yielded an abundance fitness of -0.798 ± 0.076.
PQVPQCKALYAYDAQVTDELSFNANDIIDIIKEDPSGWWTGRLRGKQGLFPNNYVTKI gave an abundance fitness of -0.169 ± 0.056.
PQVPQCKALYAYDAQGTDELSFNANDIIDIIKEDPSGWWTGRLRGKQGLFPNNYVTKI showed an abundance fitness of -0.156 ± 0.047.
PQVPQCKALYAYDAQQTDELSFNANDIIDIIKEDPSGWWTGRLRGKQGLFPNNYVTKI showed an abundance fitness of -0.22 ± 0.07.
Variant PQVPQCKALYAYDAQNTDELSFNANDIIDIIKEDPSGWWTGRLRGKQGLFPNNYVTKI has an abundance fitness of -0.052 ± 0.052.
With PQVPQCKALYAYDAQETDELSFNANDIIDIIKEDPSGWWTGRLRGKQGLFPNNYVTKI the abundance fitness was -0.097 ± 0.053.
In the case of PQVPQCKALYAYDAQITDELSFNANDIIDIIKEDPSGWWTGRLRGKQGLFPNNYVTKI, the abundance fitness is reported as -0.557 ± 0.16.
With PQVPQCKALYAYDAQMTDELSFNANDIIDIIKEDPSGWWTGRLRGKQGLFPNNYVTKI the abundance fitness was -0.098 ± 0.054.
For PQVPQCKALYAYDAQCTDELSFNANDIIDIIKEDPSGWWTGRLRGKQGLFPNNYVTKI, the abundance fitness was -0.057 ± 0.055.
Work on PQVPQCKALYAYDAQDTAELSFNANDIIDIIKEDPSGWWTGRLRGKQGLFPNNYVTKI yielded an abundance fitness of -0.162 ± 0.056.
In the case of PQVPQCKALYAYDAQDTFELSFNANDIIDIIKEDPSGWWTGRLRGKQGLFPNNYVTKI, the abundance fitness is reported as -0.238 ± 0.12.
With PQVPQCKALYAYDAQDTCELSFNANDIIDIIKEDPSGWWTGRLRGKQGLFPNNYVTKI the abundance fitness was -0.05 ± 0.059.
Work on PQVPQCKALYAYDAQDTEELSFNANDIIDIIKEDPSGWWTGRLRGKQGLFPNNYVTKI yielded an abundance fitness of 0.052 ± 0.054.
For PQVPQCKALYAYDAQDTHELSFNANDIIDIIKEDPSGWWTGRLRGKQGLFPNNYVTKI, the abundance fitness was -0.279 ± 0.086.
Work on PQVPQCKALYAYDAQDTGELSFNANDIIDIIKEDPSGWWTGRLRGKQGLFPNNYVTKI yielded an abundance fitness of -0.056 ± 0.038.
For PQVPQCKALYAYDARDTDELSFNANDIIDIIKEDPSGWWTGRLRGKQGLFPNNYVTKI, the abundance fitness was -0.035 ± 0.03.
PQVPQCKALYAYDAYDTDELSFNANDIIDIIKEDPSGWWTGRLRGKQGLFPNNYVTKI showed an abundance fitness of -0.312 ± 0.047.
With PQVPQCKALYAYDASDTDELSFNANDIIDIIKEDPSGWWTGRLRGKQGLFPNNYVTKI the abundance fitness was -0.261 ± 0.083.
Variant PQVPQCKALYAYDAVDTDELSFNANDIIDIIKEDPSGWWTGRLRGKQGLFPNNYVTKI has an abundance fitness of -0.193 ± 0.038.
Work on PQVPQCKALYAYDAWDTDELSFNANDIIDIIKEDPSGWWTGRLRGKQGLFPNNYVTKI yielded an abundance fitness of -0.408 ± 0.037.
PQVPQCKALYAYDATDTDELSFNANDIIDIIKEDPSGWWTGRLRGKQGLFPNNYVTKI showed an abundance fitness of -0.054 ± 0.061.
